According to article PMC2120351 (The Journal of Cell Biology, 1995):

Tests used:
[1] = biological target: the molecule itself; test: far-Western, overlay or dot blot
[2] = biological target: T1, recombinant whole p62 (rat nucleoporin p62 expressed in E. coli) (rat, UniProt P17955 1-525); test: far-Western, overlay or dot blot
T1 sequence: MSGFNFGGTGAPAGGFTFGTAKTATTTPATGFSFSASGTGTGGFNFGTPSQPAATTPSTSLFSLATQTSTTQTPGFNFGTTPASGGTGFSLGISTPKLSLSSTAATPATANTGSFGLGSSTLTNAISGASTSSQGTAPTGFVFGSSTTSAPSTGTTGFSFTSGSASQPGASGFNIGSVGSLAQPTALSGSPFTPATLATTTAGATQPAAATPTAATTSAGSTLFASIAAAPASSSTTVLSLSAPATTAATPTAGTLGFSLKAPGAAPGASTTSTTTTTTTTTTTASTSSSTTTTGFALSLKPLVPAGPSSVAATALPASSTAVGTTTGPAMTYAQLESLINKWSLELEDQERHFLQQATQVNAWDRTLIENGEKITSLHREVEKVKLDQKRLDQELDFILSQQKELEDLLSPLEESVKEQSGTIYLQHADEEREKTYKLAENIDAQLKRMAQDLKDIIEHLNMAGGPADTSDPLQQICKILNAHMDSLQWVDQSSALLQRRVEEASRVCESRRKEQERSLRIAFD

B1: recombinant p62 rod domain (domain or fragment)
chain: MTYAQLESLINKWSLELEDQERHFLQQATQVNAWDRTLIENGEKITSLHREVEKVKLDQKRLDQELDFILSQQKELEDLLSPLEESVKEQSGTIYLQHADEEREKTYKLAENIDAQLKRMAQDLKDIIEHLNMAGGPADTSDPLQQICKILNAHMDSLQWVDQSSALLQRRVEEASRVCESRRKEQERSLRIAFD
binding result [1]: binds
binding result [2]: binds
